The target of experiment [1] is T1, FcRL4, overexpressed on 3T3 cells (UniProt Q96PJ5 20-515, limits assumed).
T1 construct: whole, on cells
T1 sequence (looked up): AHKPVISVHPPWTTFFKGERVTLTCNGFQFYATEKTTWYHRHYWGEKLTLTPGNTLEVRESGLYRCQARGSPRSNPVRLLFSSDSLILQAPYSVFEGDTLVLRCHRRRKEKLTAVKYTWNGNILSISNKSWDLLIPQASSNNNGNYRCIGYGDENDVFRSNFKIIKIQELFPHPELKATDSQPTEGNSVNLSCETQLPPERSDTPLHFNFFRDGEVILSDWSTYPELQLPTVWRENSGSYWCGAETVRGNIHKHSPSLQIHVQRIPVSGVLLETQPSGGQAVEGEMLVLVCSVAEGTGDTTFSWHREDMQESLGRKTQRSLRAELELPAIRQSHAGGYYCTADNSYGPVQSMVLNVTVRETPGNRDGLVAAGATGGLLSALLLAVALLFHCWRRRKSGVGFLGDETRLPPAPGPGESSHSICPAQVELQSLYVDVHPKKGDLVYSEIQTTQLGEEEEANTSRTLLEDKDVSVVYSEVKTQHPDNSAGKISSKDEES
In words: phage clone on 3T3-FcRL4 cells.

The target in experiment [2] is T2, FcRL1, overexpressed on 3T3 cells (UniProt Q96LA6 17-429, limits assumed).
T2 construct: whole, on cells
T2 sequence (looked up): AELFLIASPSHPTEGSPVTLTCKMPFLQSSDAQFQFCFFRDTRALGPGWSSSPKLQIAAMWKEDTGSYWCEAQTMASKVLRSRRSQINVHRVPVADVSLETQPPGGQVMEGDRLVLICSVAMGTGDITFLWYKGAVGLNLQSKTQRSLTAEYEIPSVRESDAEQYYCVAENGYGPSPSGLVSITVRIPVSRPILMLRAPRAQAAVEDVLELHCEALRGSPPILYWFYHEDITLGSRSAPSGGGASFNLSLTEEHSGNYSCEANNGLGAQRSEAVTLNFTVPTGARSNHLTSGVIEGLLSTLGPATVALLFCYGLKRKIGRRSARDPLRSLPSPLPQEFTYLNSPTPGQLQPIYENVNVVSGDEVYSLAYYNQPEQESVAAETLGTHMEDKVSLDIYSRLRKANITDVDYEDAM
In words: phage clone on 3T3-FcRL1 cells.

B1: ET200-003 (scFv)
scFv: QSVLTQPPSVSVSPGQTASISCSGNKLGTKYVYWYQKRPGQSPVLVMYEDNQRPSGIPERFSGSNSGNTATLTIRGTQTVDEADYYCQAWDSDTFVVFGGGTKVTVLGSRGGGGSGGGGSGGGGSLEMAEVQLVETGGGVVQPGRSLRLSCAASGFTFSSYGMHWVRQAPGKGLEWVAVISHDGSNKYYADSVKGRFTISRDNSKDTLYLQMNSLRGEDTAVYYCARSNQWSGYFSFDYWGQGTLVTVSSTSGQAGQHHHHHHGAYPYDVPDYAS
notes: screened as phage clone; entry is VL-linker-VH-His tag-HA tag
As to B1, the binding result in experiment [1] and in experiment [2] was “no binding” each time.

B2: ET200-027 (scFv)
scFv: QSVLTQPPSVSGAPGQGVTIPCTGSSSNIGAGYDVHWYQQLPGTAPKLLIYGNNNRPSGVPDRFSGSRSGSSASLAITGLQAEDEADYYCQSYDSSLSDVVFGGGTKVTVLGSRGGGGSGGGGSGGGGSLEMAEVQLVQSGAEVKKPGATVKISCKVSGYTFTDYYMHWVQQAPGKGLEWMGLVDPEDGETIYAEKFQGRVTITADTSTDTAYMELSSLRSEDTAVYYCARYWSYSFDYLYMPEGNDWWGQGTLVTVSSTSGQAGQHHHHHHGAYPYDVPDYAS
notes: as for B1
As to B2, the binding result in experiment [1] and in experiment [2] was “no binding” in each case.

B3: ET200-032 (scFv)
scFv: LPVLTQPPSASGTPGQRVTISCSGSSSNVGSYTVNWYRQLPGTAPTLLIYNNNQRPSGVPDRFSDSKSGTSASLTISGLQPEDEADYYCAAWDDRLGGYVFGTGTKVTVLGSRGGGGSGGGGSGGGGSLEMAEVQLVQSGAEVKKPGESLKISCKGSGYSFTNYWIGWVRQMPGKGLEWMGIIYPGDSDTRYSPSFQGQVTISADKSISTAYLQWSSLKASDTAMYYCARSTGSSHMSDEWGQGTLVTVSSTSGQAGQHHHHHHGAYPYDVPDYAS
notes: as for B1
As for B3, the binding result in experiment [1] and in experiment [2] was “no binding” each time.

B4: ET200-029 (scFv)
scFv: QAVLTQPPSVSVAPGKTARVTCGGNNIGSESVHWYQQKPGQAPVLVIYYDTDRPSGIPERFSGSHSGTTATLTISRVEAGDEADYYCQVWDSSRDHVVFGGGTKLTVLGSRGGGGSGGGGSGGGGSLEMAQVQLVQSGGGVVQPGRSLRLSCAASGFTFSSYAMHWVRQAPGKGLEWVAVISYDGSNKYYADSVKGLFTISRDNSKNTLYLQMNSLRAEDTAVYYCARSYFTSGFYDYWGQGTLVTVSSTSGQAGQHHHHHHGAYPYDVPDYAS
notes: as for B1
B4: the binding result in experiment [1] and in experiment [2] was “no binding” throughout.

B5: ET200-034 (scFv)
scFv: QSVLTQPPSVSGAPGQRVTISCTGSTSNIGAGYDVHWYQQLPGTAPKLLINNNRNRPSGVPDRFSGSKSGTSATLGITGLQTGDEADYYCGTWDGSLTGAVFGGGTKLTVLGSRGGGGSGGGGSGGGGSLEMAEVQLVQSGAEVKKPGSSVKVSCKASGGTFSSYAISWVRQAPGQGLEWMGGIIPIFGTANYAQKFQGRVTITADESTSTAYMELSSLRSEDTAVYYCARGSALDHYDRWGQGTLVTVSSTSGQAGQHHHHHHGAYPYDVPDYAS
notes: as for B1
On to B5, for which the binding result in experiment [1] and in experiment [2] was “no binding” in each case.

B6: ET200-031 (scFv)
scFv: SYVLTQPPSVSVAPGKTARITCGGNNIGSKSVHWYQQKPGQAPVLVIYYDSDRPSGIPERFSGSNSGNTATLTISRVEAGDEADYYCQVWDSSSDYVFGTGTKVTVLGSRGGGGSGGGGSGGGGSLEMAEVQLVETGGGLVKPGGSLRLSCAASGFTVSDYYMSWIRQAPGKGLEWISYISGSGNSIYYADSVKGRFTISRDNAKNSLDLQMTSLRAEDTAVYYCARSTKFDYWGQGTLVTVSSTSGQAGQHHHHHHGAYPYDVPDYAS
notes: screened as phage clone; entry is VL-linker-VH-His tag-HA tag; also called ET200-31
Regarding B6, the binding result in experiment [1] and in experiment [2] was “no binding” each time.

B7: ET200-002 (scFv)
scFv: NFMLTQPHSVSESPGKTVTISCTRSSGSIASNYVQWYQQRPGSAPTTVIYEDNQRPSGVPDRFSGSIDSSSNSASLTISGLKTEDEADYYCQSYDSSNSVVFGGGTKLTVLGSRGGGGSGGGGSGGGGSLEMAQVQLVQSGTEVKKPGASVRVACKASGYPFNKYDINWVRQAPGQGLEWMGGIIPIFRTTNYAQKFQGRVTITADESTSTAYMELSSLRSEDTAVYYCAREWFYWDIWGQGTLVTVSSTSGQAGQHHHHHHGAYPYDVPDYAS
notes: as for B1
As for B7, the binding result in experiment [1] and in experiment [2] was “no binding” throughout.

B8: ET200-030 (scFv)
scFv: QSVVTQPPSVSGAPGQRVTISCTGSSSNIGAGYDVNWYQQFPGTAPKLLIYGNSNRPSGVPDRFSGSKSGTSASLAITGLQAEDEADYYCQSYDSSLSGSYVFGTGTKVTVLGSRGGGGSGGGGSGGGGSLEMAQMQLVQSGAEVKKPGASVKVSCKASGYTLTELSMHWVRQAPGKGLEWMGGFDPEDGETIYAQKFQGRVTMTEDTSTDTAYMELSSLRSEDTAVYYCARMSSMYYDWGQGTLVTVSSTSGQAGQHHHHHHGAYPYDVPDYAS
notes: as for B1
For the molecule B8, the binding result in experiment [1] and in experiment [2] was “no binding” throughout.

B9: ET200-038 (scFv)
scFv: QSVLTQPPSVSGAPGQRVTISCTGSSSNIGAGFDVHWYQLLPGTAPKLLIYANSNRPSGVPDRFSGSKSGTSASLAITGLLAEDEADYYCQSYDSSLSGVVFGGGTKLTVLGSRGGGGSGGGGSGGGGSLEMAQVQLVQSGAEVKKPGSSVKVSCKASGGTFSSYAISWVRQAPGQGLEWMGGIIPIFGTANYAQKFQGRVTITADESTSTAYMELSSLRSEDTAVYYCARGASFDRHDNWGQGTLVTVSSTSGQAGQHHHHHHGAYPYDVPDYAS
notes: as for B1
Take B9: the binding result in experiment [1] and in experiment [2] was “no binding” in each case.

B10: ET200-035 (scFv)
scFv: NFMLTQPHSVSESPGKTVTISCTRSSGSIASNYVQWYQQRPGSAPTTVIYEDNQRPSGVPDRFSGSIDSSSNSASLTISGLKTEDEADYYCQSYDSTNWVFGGGTKLTVLGSRGGGGSGGGGSGGGGSLEMAQVQLVQSGAEVKKPGSSVKVSCKASGGTFSSYAISWVRQAPGQGLEWMGGIIPIFGTANYAQKFQGRVTITADESTSTAYMELSSLRSEDTAVYYCARYNYYFNDYWGQGTLVTVSSTSGQAGQHHHHHHGAYPYDVPDYAS
notes: as for B1
Regarding B10, the binding result in experiment [1] and in experiment [2] was “no binding” in each case.

B11: ET200-028 (scFv)
scFv: QSVLTQPPAASGTPGQRVTISCSGGVSNIGSGALNWYQQLPGTAPKLLIYSYNQRPSGVSDRFSGSRSATSASLAISGLQSEDEADYYCATWDDSVNGWVFGGGTKLTVLGSRGGGGSGGGGSGGGGSLEMAQVQLVQSGAEVKKPGDSVKVSCKPSGYNFLNYGINWVRQAPGQGLEWMGWISTYTGNTNYAQKLQGRVTFTTDTSTSTAYMEMRSLRSDDTAVYYCARDLYYYEGVDYWGQGTLVTVSSTSGQAGQHHHHHHGAYPYDVPDYAS
notes: as for B1
Regarding B11, the binding result in experiment [1] and in experiment [2] was “no binding” each time.

B12: ET200-041 (scFv)
scFv: NFMLTQPHSVSGSPGKTVTISCTGSSGSIADNFVQWYQQRPGGVPTTVIFNDDERPSGVPDRFSGSIDTSSNSASLTISGLKTEDEADYYCQSYDNNNRGVFGGGTKLTVLGSRGGGGSGGGGSGGGGSLEMAQVQLVQSGAEVKKPGSSVKVSCKASGGTFSSYAISWVRQAPGQGLEWMGWMNPNSGNTGYAQKFQGRVTMTRNTSISTAYMELSNLRSEDTAVYYCARYYSYGYDWGQGTLVTVSSTSGQAGQHHHHHHGAYPYDVPDYAS
notes: as for B1
For B12, the binding result in experiment [1] and in experiment [2] was “no binding” each time.

B13: ET200-040 (scFv)
scFv: QSVLTQPPSVSGAPGQRVTISCTGSSSNIGAGYDVHWYQQLPGTAPKLLIYGNSNRPSGVPDRFSGSKSGTSASLAITGLQAEDEADYYCQSYDSSLSGYVFGTGTKVTVLGSRGGGGSGGGGSGGGGSLEMAQVQLVQSGAEVKKPGASVKVSCKVSGYTLTELSMHWVRQAPGKGLEWMGGFDPEDGETIYAQKFQGRVTMTEDTSTDTAYMELSSLRSEDTAVYYCARYSGVYYDWGQGTLVTVSSTSGQAGQHHHHHHGAYPYDVPDYAS
notes: as for B1
As for B13, the binding result in experiment [1] and in experiment [2] was “no binding” throughout.

B14: ET200-033 (scFv)
scFv: NFMLTQPHSVSESPGKTVTISCTGSSGSIASNYVQWYQQRPGSAPTTVIYEDNQRPSGVPDRFSGSIDSSSNSASLTISGLKTEDEADYYCQSYDSSNHWVFGGGTKLTVLGSRGGGGSGGGGSGGGGSLEMAQVQLQQWGAGLLKPSETLSLTCAVYGGSFSGYYWSWIRQPPGKGLEWIGEITHSGRSNYNPSLKSRVTISVDTSKNQFSLKLSSVTAADTAVYYCARSSIMSDYWGQGTLVTVSSTSGQAGQHHHHHHGAYPYDVPDYAS
notes: as for B1
Turning to B14, the binding result in experiment [1] and in experiment [2] was “no binding” each time.
